Measurements: patent US20200392228A1 (PANDION OPERATIONS, published 2020)
Substitutions are numbered along the chain they refer to.

B1: MAdCAM antibody Clone ID 16 of Table 6 (scFv) (scFv)
scFv: EVQLLESGGGLVQPGGSLRLSCAASGFTFEDYAMHWVRQAPGKGLEWVSYLNSDGGSTSYADSVKGRFTISRDNSKNTLYLQMNSLRAEDTAVYYCAKDYCTNGVCAFDYWGQGTLVTVSSGGGGSGGGGSGGGGSGGGGSDIQMTQSPSSLSASVGDRVTITCRASQSISTYLNWYQQKPGKAPKLLIYDASNLETGVPSRFSGSGSGTDFTLTISSLQPEDFATYYCQQSYTIPITFGQGTRLEIK
B2: MAdCAM antibody Clone ID 14 of Table 6 (scFv) (scFv)
scFv: QVQLVQSGAEVKKPGSSVKVSCKASGYTFTDYHIHWVRQAPGQGLEWMGGIVPRSGSTTYAQKFQGRVTITADESTSTAYMELSSLRSEDTAVYYCAKDESSGWYYFDYWGQGTLVTVSSGGGGSGGGGSGGGGSGGGGSDIVMTQSPLSLPVTPGEPASISCRSSQSLLHSNGYNYLDWYLQKPGQSPQLLIYSAYNRASGVPDRFSGSGSGTDFTLKISRVEAEDVGVYYCMQALQTPLTFGQGTKVEIK
B3: MAdCAM antibody Clone ID 11 of Table 6 (scFv) (scFv)
scFv: QVQLVQSGAEVKKPGASVKVSCKASGYTFTTYYMHWVRQAPGQGLEWMGGFDPEDGETIYAQKFQGRVTMTRDTSTSTVYMELSSLRSEDTAVYYCARHAVAGAVGAGYYYYGMDVWGQGTMVTVSSGGGGSGGGGSGGGGSGGGGSDIQMTQSPSSLSASVGDRVTITCRASESISNWLAWYQQKPGKAPKLLIYAASTLQSGVPSRFSGSGSGTDFTLTISSLQPEDFATYYCQQSYSVPFTFGPGTKVDIK
B4: MAdCAM antibody Clone ID 53 of Table 6 (scFv) (scFv)
scFv: QVQLVQSGAEVKKPGASVKVSCKASGYTFTSYDINWVRQAPGQGLEWMGWMNPNSGNTGYAQKFQGRVTMTRDTSTSTVYMELSSLRSEDTAVYYCAKDSDYSNLLWDYWGQGTLVTVSSGGGGSGGGGSGGGGSGGGGSDIQMTQSPSSLSASVGDRVTITCRASQDITNDLGWYQQKPGKAPKLLIYQASSLESGVPSRFSGSGSGTDFTLTISSLQPEDFATYYCQQSYTIPLTFGQGTKVEIK
B5: MAdCAM antibody Clone ID 55 of Table 6 (scFv) (scFv)
scFv: QVQLVQSGAEVKKPGASVKVSCKASGYTFTSYYMHWVRQAPGQGLEWMGIIDPSGGSTSYAQKFQGRVTMTRDTSTSTVYMELSSLRSEDTAVYYCAREEWSSGGVGYFDYWGQGTLVTVSSGGGGSGGGGSGGGGSGGGGSDIQMTQSPSSLSASVGDRVTITCRASQGISSYLAWYQQKPGKAPKLLIYATSSLQTGVPSRFSGSGSGTDFTLTISSLQPEDFATYYCQQTYSIPITFGQGTRLEIK
B6: MAdCAM antibody Clone ID 13 of Table 6 (scFv) (scFv)
scFv: EVQLLESGGGLVQPGGSLRLSCAASGFTFDDYAMHWVRQAPGKGLEWVSYIDASGTTIYYADSVKGRFTISRDNSKNTLYLQMNSLRAEDTAVYYCAKDQAAAGYWYFDLWGRGTLVTVSSGGGGSGGGGSGGGGSGGGGSDIQMTQSPSSLSASVGDRVTITCQASQDISNYLNWYQQKPGKAPKLLIYKASTLESGVPSRFSGSGSGTDFTLTISSLQPEDFATYYCQQSYSTPITFGQGTRLEIK
B7: MAdCAM antibody Clone ID 8 of Table 6 (scFv) (scFv)
scFv: EVQLLESGGGLVQPGGSLRLSCAASGFMFGDYAMHWVRQAPGKGLEWVSAISGSGGSTYYADSVKGRFTISRDNSKNTLYLQMNSLRAEDTAVYYCAKDLVVAGIWYFDLWGRGTLVTVSSGGGGSGGGGSGGGGSGGGGSDIQMTQSPSSLSASVGDRVTITCRASQGISNNLNWYQQKPGKAPKLLIYDASSLESGVPSRFSGSGSGTDFTLTISSLQPEDFATYYCQQTHSFPSTFGQGTKLEIK
B8: MAdCAM antibody Clone ID 10 of Table 6 (scFv) (scFv)
scFv: QVQLVQSGAEVKKPGASVKVSCKASGYTLTTWYMYWVRQAPGQGLEWMGWINPNRGATNYAQKFQGRVTMTRDTSTSTVYMELSSLRSEDTAVYYCAKGDLWGAMDVWGQGTLVTVSSGGGGSGGGGSGGGGSGGGGSDIQMTQSPSSLSASVGDRVTITCRASDNIGSWLAWYQQKPGKAPKLLIYAASSLQSGVPSRFSGSGSGTDFTLTISSLQPEDFATYYCQQGYSTPPTFGQGTKVEIK
B9: MAdCAM antibody Clone ID 26 of Table 6 (scFv) (scFv)
scFv: B8 scFv with L113T
B10: MAdCAM antibody Clone ID 58 of Table 6 (scFv) (scFv)
scFv: QVQLVQSGAEVKKPGASVKVSCKASGYTFTGYYMHWVRQAPGQGLEWMGIINPSGGNTKYAQKFQGRVTMTRDTSTSTVYMELSSLRSEDTAVYYCTTADYYYYMDVWGKGTTVTVSSGGGGSGGGGSGGGGSGGGGSDIQMTQSPSSLSASVGDRVTITCRASQGISNYLAWYQQKPGKAPKLLIYAASSLQSGVPSRFSGSGSGTDFTLTISSLQPEDFATYYCQQYYSNADFGQGTKVEIK
B11: MAdCAM antibody Clone ID 17 of Table 6 (scFv) (scFv)
scFv: EVQLLESGGGLVQPGGSLRLSCAASGFTFSDSAMHWVRQAPGKGLEWVSAISGSGSTIYYADSVKGRFTISRDNSKNTLYLQMNSLRAEDTAVYYCVSDIAVAGHWYFDLWGRGTLVTVSSGGGGSGGGGSGGGGSGGGGSDIQMTQSPSSLSASVGDRVTITCRASQSISTFLNWYQQKPGKAPKLLIYAASRLEGGVPSRFSGSGSGTDFTLTISSLQPEDFATYYCQQANSFPLTFGPGTKVDIK
B12: MAdCAM antibody Clone ID 57 of Table 6 (scFv) (scFv)
scFv: QVQLVQSGAEVKKPGASVKVSCKASGYTFTSYYMHWVRQAPGQGLEWMGIINPSGGSTSYAQKFQGRVTMTRDTSTSTVYMELSSLRSEDTAVYYCARDSVAGTGGRYYGMDVWGQGTLVTVSSGGGGSGGGGSGGGGSGGGGSDIQMTQSPSSLSASVGDRVTITCRASQGISNYFAWYQQKPGKAPKLLIYAASSLQGGVPSRFSGSGSGTDFTLTISSLQPEDFATYYCQQSYSLPYTFGQGTKLEIK
B13: MAdCAM antibody Clone ID 15 of Table 6 (scFv) (scFv)
scFv: QVQLVQSGAEVKKPGSSVKVSCKASGYTFTNYYMHWVRQAPGQGLEWMGGIIPIVDRVKYAQKFQGRVTITADESTSTAYMELSSLRSEDTAVYYCAKGRYTVNYYYGMDVWGQGTTVTVSSGGGGSGGGGSGGGGSGGGGSDIQMTQSPSSLSASVGDRVTITCQANQDISNYLNWYQQKPGKAPKLLIYRASKLEAGVPSRFSGSGSGTDFTLTISSLQPEDFATYYCQQSSEIPYSFGQGTKLEIK
B14: MAdCAM antibody Clone ID 54 of Table 6 (scFv) (scFv)
scFv: EVQLLESGGGLVQPGGSLRLSCAASGFTFGDYAMSWVRQAPGKGLEWVAVVSYDGTNKYYADSVKGRFTISRDNSKNTLYLQMNSLRAEDTAVYYCAKDICSSTSCYFDLWGRGTLVTVSSGGGGSGGGGSGGGGSGGGGSDIQMTQSPSSLSASVGDRVTITCRASQNINNYVNWYQQKPGKAPKLLIYDASNLETGVPSRFSGSGSGTDFTLTISSLQPEDFATYYCQQANSFPPTFGQGTRLEIK

What follows are binders tested against T1, human MAdCAM expressed on cells (human, UniProt Q13477 19-382) (assay: cell binding).
T1 construct: whole, on cells; also called MADCAM1
T1 sequence (looked up): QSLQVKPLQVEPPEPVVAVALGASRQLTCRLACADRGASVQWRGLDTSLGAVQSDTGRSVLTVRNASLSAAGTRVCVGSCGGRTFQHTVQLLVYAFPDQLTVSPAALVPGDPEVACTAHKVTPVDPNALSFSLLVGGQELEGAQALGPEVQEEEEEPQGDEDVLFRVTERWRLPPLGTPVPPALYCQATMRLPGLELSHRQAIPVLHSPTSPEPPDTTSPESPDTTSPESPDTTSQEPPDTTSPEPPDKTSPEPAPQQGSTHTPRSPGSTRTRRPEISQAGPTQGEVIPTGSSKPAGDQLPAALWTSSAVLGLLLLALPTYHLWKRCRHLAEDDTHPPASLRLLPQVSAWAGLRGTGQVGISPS
B1: binds. B2: binds. B3: binds. B4: binds. B5: binds. B6: binds. B7: binds. B8: binds. B9: binds. B10: binds. B11: binds. B12: binds. B13: binds. B14: binds.

Each binder was assayed against T2, mouse MAdCAM expressed on cells (mouse, UniProt Q61826 22-405) (assay: cell binding).
T2 construct: whole, on cells
T2 sequence (looked up): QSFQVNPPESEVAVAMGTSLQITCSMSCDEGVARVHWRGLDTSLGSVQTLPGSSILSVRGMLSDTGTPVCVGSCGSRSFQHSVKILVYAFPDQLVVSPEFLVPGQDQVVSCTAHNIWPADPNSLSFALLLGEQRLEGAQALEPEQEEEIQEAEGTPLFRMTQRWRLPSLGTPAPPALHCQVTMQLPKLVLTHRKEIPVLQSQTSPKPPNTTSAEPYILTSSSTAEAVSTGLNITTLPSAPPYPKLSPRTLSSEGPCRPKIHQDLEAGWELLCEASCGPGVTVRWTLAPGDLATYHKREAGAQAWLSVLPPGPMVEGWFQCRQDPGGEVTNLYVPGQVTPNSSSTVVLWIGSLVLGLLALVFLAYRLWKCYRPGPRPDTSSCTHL
B1: no binding. B2: no binding. B3: no binding. B4: no binding. B5: no binding. B6: no binding. B7: no binding. B8: no binding. B9: no binding. B10: no binding. B11: no binding. B12: no binding. B13: no binding. B14: no binding.
